The target in this test is PSD95, His tagged recombinant (UniProt P78352 1-724). Briefly: BLI. A general note: In BLI a coated tip is dipped into the sample, and binding shifts an interference pattern.

Usually Kd stands for a measure of binding affinity in units of concentration.

Sequence of PSD95, His tagged recombinant (P78352 whole entry): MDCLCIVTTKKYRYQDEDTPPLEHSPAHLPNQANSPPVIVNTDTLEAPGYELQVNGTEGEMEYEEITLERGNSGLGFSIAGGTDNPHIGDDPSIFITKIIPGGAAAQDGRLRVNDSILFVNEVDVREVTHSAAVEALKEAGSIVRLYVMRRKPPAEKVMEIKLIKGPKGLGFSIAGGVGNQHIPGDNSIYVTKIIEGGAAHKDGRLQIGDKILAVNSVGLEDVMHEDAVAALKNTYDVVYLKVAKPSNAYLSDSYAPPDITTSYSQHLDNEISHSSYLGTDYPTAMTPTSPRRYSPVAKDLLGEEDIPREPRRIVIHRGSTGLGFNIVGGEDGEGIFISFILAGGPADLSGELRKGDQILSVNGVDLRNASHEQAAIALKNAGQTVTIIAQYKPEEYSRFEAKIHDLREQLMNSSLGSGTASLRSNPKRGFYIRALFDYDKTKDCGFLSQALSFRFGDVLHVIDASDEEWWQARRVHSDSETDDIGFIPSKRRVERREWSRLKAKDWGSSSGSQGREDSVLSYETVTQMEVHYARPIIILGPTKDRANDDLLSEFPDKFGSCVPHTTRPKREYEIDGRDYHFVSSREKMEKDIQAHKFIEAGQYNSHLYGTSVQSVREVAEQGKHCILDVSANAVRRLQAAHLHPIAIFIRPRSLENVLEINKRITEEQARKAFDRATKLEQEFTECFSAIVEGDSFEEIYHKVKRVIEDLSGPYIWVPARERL

B1: NS1 of A/Brevig Mission/1/1918 (H1N1) influenza A virus, His tagged recombinant (natural protein)
chain: MDSNTVSSFQVDCFLWHVRKRFADQELGDAPFLDRLRRDQKSLRGRGSTLGLDIETATRAGKQIVERILKEESDEALKMTIASVPASRYLTDMTLEEMSRDWFMLMPKQKVAGSLCIRMDQAIMDKNIILKANFSVIFDRLETLILLRAFTEEGAIVGEISPLPSLPGHTDEDVKNAVGVLIGGLEWNDNTVRVSETLQRFAWRSSNENGRPPLPPKQKRKMARTIKSEV
For B1, the Kd was determined as 1600 nM.

The values are drawn from publication PMC10754036 (Nature structural & molecular biology, 2018).
